Changes are numbered by the printed parent chain. Names and notes keep the numbering of the source. Each block holds one binder with its values, some of them ahead of it.
What was measured:
[1] = target: T1, Human C5 (human, UniProt P01031 19-1676); assay: SPR, mAb captured by anti-hFc, 25C
T1 construct: The natural protein has a beta and an alpha chain; also called complement factor 5; complement component 5
Experimental: (§1) Equilibrium dissociation constants (KD values) for C5 binding to purified anti-C5 antibodies were determined using a real-time surface plasmon resonance biosensor assay on a Biacore T200 instrument. The Biacore sensor surface was derivatized by amine coupling with a monoclonal mouse anti-human Fc antibody (GE Healthcare, # BR-1008-39) to capture anti-C5 antibodies expressed with human Fc constant regions. Biacore binding studies were conducted in HBST running buffer (0.01M HEPES pH 7.4, 0.15M NaCl, 3 mM EDTA, 0.05% v/v Surfactant P20).
(§2) Human C5 was obtained from a commercial source (EMD). Other C5 reagents were expressed with a C-terminal myc-myc-hexahistidine tag (subsequently referred to as C5-mmh). […] Association of all the C5 reagents to each of the captured monoclonal antibodies was monitored for 3 minutes and their dissociation in HBST running buffer was monitored for 8 minutes. All the binding kinetics experiments were performed at either 25° C. or 37° C. Kinetic association (kₐ) and dissociation (kd) rate constants were determined by fitting the real-time sensorgrams to a 1:1 binding model using Scrubber 2.0c curve fitting software. Binding dissociation equilibrium constants (KD) and dissociative half-lives (t %) were calculated from the kinetic rate constants as: KD (M)=kd/kₐ and t_{1/2} (min)=In2/(60×kd)

[2] = target: T2, monkey C5-mmh (monkey, UniProt P01031 19-1676 (human entry), limits assumed); assay: SPR, mAb captured by anti-hFc, 25C
T2 construct: Expressed with a C-terminal myc-myc-hexahistidine tag
T2 chain: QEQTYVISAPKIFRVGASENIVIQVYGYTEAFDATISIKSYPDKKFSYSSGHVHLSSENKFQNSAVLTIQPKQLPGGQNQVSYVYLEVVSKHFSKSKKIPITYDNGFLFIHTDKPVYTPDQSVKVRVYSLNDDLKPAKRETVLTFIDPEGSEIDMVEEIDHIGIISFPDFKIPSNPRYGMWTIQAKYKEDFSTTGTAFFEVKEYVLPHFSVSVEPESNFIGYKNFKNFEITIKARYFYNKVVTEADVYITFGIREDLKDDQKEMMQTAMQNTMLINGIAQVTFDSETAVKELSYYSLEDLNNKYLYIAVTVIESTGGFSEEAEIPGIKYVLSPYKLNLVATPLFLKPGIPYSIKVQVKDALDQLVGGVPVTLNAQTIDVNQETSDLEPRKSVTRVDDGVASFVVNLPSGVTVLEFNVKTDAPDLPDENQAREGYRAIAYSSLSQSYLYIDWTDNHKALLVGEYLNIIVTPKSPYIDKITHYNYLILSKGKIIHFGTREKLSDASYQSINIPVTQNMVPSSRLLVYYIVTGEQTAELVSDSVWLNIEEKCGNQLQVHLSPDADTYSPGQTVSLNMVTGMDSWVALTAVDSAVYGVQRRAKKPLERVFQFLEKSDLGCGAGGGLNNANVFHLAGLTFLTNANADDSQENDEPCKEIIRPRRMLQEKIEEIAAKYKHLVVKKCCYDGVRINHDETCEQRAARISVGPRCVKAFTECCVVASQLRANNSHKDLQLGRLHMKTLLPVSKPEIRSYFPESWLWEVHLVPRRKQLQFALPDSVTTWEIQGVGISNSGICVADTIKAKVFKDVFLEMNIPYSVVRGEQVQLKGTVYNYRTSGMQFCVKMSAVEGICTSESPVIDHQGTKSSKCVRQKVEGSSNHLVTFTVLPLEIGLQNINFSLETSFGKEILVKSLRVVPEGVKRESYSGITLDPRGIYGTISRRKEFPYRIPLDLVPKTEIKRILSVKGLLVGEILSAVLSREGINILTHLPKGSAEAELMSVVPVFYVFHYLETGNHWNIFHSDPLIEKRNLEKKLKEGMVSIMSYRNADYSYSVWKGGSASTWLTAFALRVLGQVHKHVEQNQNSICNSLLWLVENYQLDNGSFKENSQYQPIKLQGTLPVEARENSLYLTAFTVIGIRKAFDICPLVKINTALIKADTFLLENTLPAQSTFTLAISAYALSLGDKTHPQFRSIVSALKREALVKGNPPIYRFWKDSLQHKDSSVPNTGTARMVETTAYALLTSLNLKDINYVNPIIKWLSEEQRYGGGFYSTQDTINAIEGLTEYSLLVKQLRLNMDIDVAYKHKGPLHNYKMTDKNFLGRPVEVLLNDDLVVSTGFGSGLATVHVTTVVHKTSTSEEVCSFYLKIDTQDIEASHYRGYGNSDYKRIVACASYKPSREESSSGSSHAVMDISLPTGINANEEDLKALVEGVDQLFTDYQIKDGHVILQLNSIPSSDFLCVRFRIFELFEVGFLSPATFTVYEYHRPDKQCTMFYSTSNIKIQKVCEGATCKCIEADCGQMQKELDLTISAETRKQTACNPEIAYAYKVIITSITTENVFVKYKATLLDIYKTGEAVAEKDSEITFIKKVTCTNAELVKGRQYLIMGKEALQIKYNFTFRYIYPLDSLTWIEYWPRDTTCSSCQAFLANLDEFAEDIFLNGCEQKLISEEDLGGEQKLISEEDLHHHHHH
Experimental: as §1, §2

[3] = target: T1, Human C5; assay: SPR, mAb captured by anti-hFc, 37C
Experimental: as §1, §2

[4] = target: T3, human C5 R885H-mmh (human, UniProt P01031 19-1676); assay: SPR, mAb captured via anti-hFc, 37C
T3 construct: also called human C5 variant R885H
Experimental: as §1, §2

[5] = target: T4, human C5 R885C-mmh (human, UniProt P01031 19-1676); assay: SPR, mAb captured via anti-hFc, 37C
T4 construct: also called human C5 variant R885C
Experimental: as §1, §2

[6] = target: T5, monkey C5-mmh (monkey, UniProt P01031 19-1676 (human entry), limits assumed); assay: SPR, mAb captured via anti-hFc, 37C
T5 construct: Recombinant monkey C5 with a C-terminal myc-myc-hexahistidine tag
T5 chain: T2 chain
Experimental: as §1, §2

[7] = target: T3, human C5 R885H-mmh; assay: SPR, mAb captured via anti-hFc, 25C
Experimental: as §1, §2

[8] = target: T4, human C5 R885C-mmh; assay: SPR, mAb captured via anti-hFc, 25C
Experimental: as §1, §2

B2: H4H12161P (antibody, human IgG4, V domains shown)
VH: EVQLVESGGDLVQPGGSLRLSCAASGFTFSDHYMDWVRQAPGKGLDWIGRIRNKANAYNTEYAASVRGRFTISRDDSQNLLYLQMNSLKTDDTAVYYCVRVWNYAYFAMDVWGQGTTVTVSS
VL: DIQMTQSPSSLSASVGDRVTITCRSSQNIGIFLNWYQQKPGEAPNLLISAASSLHSGVPSRFSGSGSGTDFTLTIGSLQPEDFATYYCQQTYNTIFTFGPGTKVDIK
notes: Human IgG4 Fc with S108P hinge mutation (H4H)
- 100 nM Human C5 R885H-mmh Bound (RU) [4]: 54 RU
- Kd [4]: 7.84 nM
- koff [4]: 0.000925 s⁻¹
- kon [4]: 118000 M⁻¹ s⁻¹
- t1/2 [4]: 12 min
- 100 nM Human C5 R885C-mmh Bound (RU) [5]: 49 RU
- Kd [5]: 8.17 nM
- koff [5]: 0.000901 s⁻¹
- kon [5]: 110000 M⁻¹ s⁻¹
- t1/2 [5]: 13 min
- 100 nM monkey C5-mmh Bound (RU) [6]: 53 RU
- Kd [6]: 5.56 nM
- koff [6]: 0.000745 s⁻¹
- kon [6]: 134000 M⁻¹ s⁻¹
- t1/2 [6]: 16 min
- 100 nM Human C5 R885H-mmh Bound (RU) [7]: 199 RU
- Kd [7]: 0.996 nM
- koff [7]: 8.32e-05 s⁻¹
- kon [7]: 83600 M⁻¹ s⁻¹
- t1/2 [7]: 139 min
- 100 nM Human C5 R885C-mmh Bound (RU) [8]: 147 RU
- Kd [8]: 0.672 nM
- koff [8]: 8.71e-05 s⁻¹
- kon [8]: 130000 M⁻¹ s⁻¹
- t1/2 [8]: 133 min

B4: H4H12166P8 (antibody, human IgG4, V domains shown)
VH: QVQLQESGPGLVKPSETLSLTCTVSGDSVSSSYWTWIRQPPGKGLEWIGYIYYSGSSNYNPSLKSRATISVDTSKNQFSLKLSSVTAADTAVYYCAREGNVDHTMIFDYWGQGTLVTVSS
VL: AIQMTQSPSSLSASVGDRVTITCRASQGIRNDLGWYQQKPGKAPKLLIYAASSLQSGVPSRFAGRGSGTDFTLTISSLQPEDFATYYCHQDFNYPWTFGQGTKVEIK
notes: human IgG4 Fc with S108P hinge mutation
- 100 nM Human C5 Bound (RU) [1]: 91 RU
- Kd [1]: 1.42 nM
- koff [1]: 0.000686 s⁻¹
- kon [1]: 484000 M⁻¹ s⁻¹
- t½ [1]: 17 min
- 100 nM monkey C5-mmh Bound (RU) [2]: 47 RU
- Kd [2]: 21.6 nM
- koff [2]: 0.00499 s⁻¹
- kon [2]: 231000 M⁻¹ s⁻¹
- t1/2 [2]: 2 min
- 100 nM Human C5 Bound (RU) [3]: 98 RU
- Kd [3]: 3.1 nM
- koff [3]: 0.00209 s⁻¹
- kon [3]: 675000 M⁻¹ s⁻¹
- t½ [3]: 6 min

B5: H4H12166P9 (antibody, human IgG4, V domains shown)
VH: B4 VH
VL: B4 VL with H89L, T97H
notes: as for B4
- 100 nM Human C5 Bound (RU) [1]: 100 RU
- Kd [1]: 0.794 nM
- koff [1]: 0.000264 s⁻¹
- kon [1]: 332000 M⁻¹ s⁻¹
- t½ [1]: 44 min
- 100 nM monkey C5-mmh Bound (RU) [2]: 55 RU
- Kd [2]: 18.7 nM
- koff [2]: 0.00318 s⁻¹
- kon [2]: 170000 M⁻¹ s⁻¹
- t1/2 [2]: 4 min
- 100 nM Human C5 Bound (RU) [3]: 122 RU
- Kd [3]: 1.7 nM
- koff [3]: 0.000639 s⁻¹
- kon [3]: 375000 M⁻¹ s⁻¹
- t½ [3]: 18 min

B6: H4H12166P10 (antibody, human IgG4, V domains shown)
VH: B4 VH with H103T, F107H
VL: B4 VL with H89L, T97H
notes: as for B4
- 100 nM Human C5 Bound (RU) [1]: 69 RU
- Kd [1]: 8.38 nM
- koff [1]: 0.00132 s⁻¹
- kon [1]: 157000 M⁻¹ s⁻¹
- t½ [1]: 9 min
- 100 nM monkey C5-mmh Bound (RU) [2]: 15 RU
- Kd [2]: 64.4 nM
- koff [2]: 0.00616 s⁻¹
- kon [2]: 95600 M⁻¹ s⁻¹
- t1/2 [2]: 2 min
- 100 nM Human C5 Bound (RU) [3]: 82 RU
- Kd [3]: 13.8 nM
- koff [3]: 0.00314 s⁻¹
- kon [3]: 227000 M⁻¹ s⁻¹
- t½ [3]: 4 min

B7: H4H12171P (antibody, human IgG4, V domains shown)
VH: EVQLVESGGGVVRPGGSLRLSCAASGFTFDEYGMTWVRQVPGKGLEWVSGITWNGGFTDYTDSVKGRFTSSRDNAKNSLYLQMNSLRAEDTALYYCARDGYSSSWGAYDIWGQGTMVTVSS
VL: DIQMTQSPSSLSASVGDRVTITCRASQSISTYLNWYQQKPGKAPKLLIYAASSLQSGVPLRFSGSGSGTDFTLTISSLQPEDFASYFCQQSYSTPYTFGQGTKLEIK
- 100 nM Human C5 Bound (RU) [1]: 64 RU
- Kd [1]: 0.549 nM
- koff [1]: 8.16e-05 s⁻¹
- kon [1]: 149000 M⁻¹ s⁻¹
- t½ [1]: 142 min
- 100 nM monkey C5-mmh Bound (RU) [2]: 17 RU
- Kd [2]: 4.92 nM
- koff [2]: 0.000226 s⁻¹
- kon [2]: 46000 M⁻¹ s⁻¹
- t1/2 [2]: 51 min
- 100 nM Human C5 Bound (RU) [3]: 58 RU
- Kd [3]: 6.27 nM
- koff [3]: 0.000762 s⁻¹
- kon [3]: 122000 M⁻¹ s⁻¹
- t½ [3]: 15 min

More lines, now with the values ahead:

- 100 nM Human C5 Bound (RU) [1]: 64 RU
- Kd [1]: 0.17 nM
- koff [1]: 4.37e-05 s⁻¹
- kon [1]: 258000 M⁻¹ s⁻¹
- t½ [1]: 264 min
- 100 nM monkey C5-mmh Bound (RU) [2]: 45 RU
- Kd [2]: 0.392 nM
- koff [2]: 2.48e-05 s⁻¹
- kon [2]: 63300 M⁻¹ s⁻¹
- t1/2 [2]: 465 min
- 100 nM Human C5 Bound (RU) [3]: 66 RU
- Kd [3]: 0.99 nM
- koff [3]: 0.000115 s⁻¹
- kon [3]: 116000 M⁻¹ s⁻¹
- t½ [3]: 101 min
B1: H4H12161P (antibody, human IgG4, V domains shown)
VH: B2 VH
VL: B2 VL

- 100 nM Human C5 Bound (RU) [1]: 439 RU
- Kd [1]: 0.123 nM
- koff [1]: 5.14e-05 s⁻¹
- kon [1]: 417000 M⁻¹ s⁻¹
- t½ [1]: 225 min
- 100 nM monkey C5-mmh Bound (RU) [2]: 403 RU
- Kd [2]: 0.64 nM
- koff [2]: 0.000247 s⁻¹
- kon [2]: 386000 M⁻¹ s⁻¹
- t1/2 [2]: 47 min
- 100 nM Human C5 Bound (RU) [3]: 492 RU
- Kd [3]: 0.532 nM
- koff [3]: 0.000241 s⁻¹
- kon [3]: 454000 M⁻¹ s⁻¹
- t½ [3]: 48 min
B3: H4H11683N (antibody, human IgG4, V domains shown)
VH: QVQLVESGGGVVQPGRSLRLSCVASGFTFSSYGIHWVRQAPGKGLEWVAVIWDDGNNINYSDSVKGRFIISRDNSRKTVYLQMNSLRGEDTAVYYCARDAPIAPVPDYWGQGTLVTVSS
VL: DIQMTQSPSTLSASVGDRVTITCRASQSISSWLAWYQQKPGKAPKLLIYKASSLDTGVPSRFSGSGSGTEFTLTISSLQPDDFATYYCQQYNTYSYTFGLGTKLEIK
notes: also called H2M11683N
